Experimental data taken from patent US20250197490A1 (HBM ALPHA THERAPEUTICS, published 2025).
Several values for one entry are separate records, joined by “and”; a condition that tells them apart may be missing. Identical values can stand only once.

Experiments:
[1] = target: T1, biotinylated CRH (human and mouse, UniProt P01143 145-185 (rat entry), not fully specified; biotin; which end is not stated for the result (NT-biotin and CT-biotin forms were used)); experiment: Octet BLI, biotinylated CRH on SA sensors
T1 construct: also called biotin-CRH; CRH (NT biotin)
T1 peptide: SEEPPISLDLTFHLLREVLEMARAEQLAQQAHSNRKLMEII

[2] = target: T1, biotinylated CRH; experiment: ELISA, CRH (NT biotin)
[3] = target: T1, biotinylated CRH; experiment: ELISA, CRH (NT biotin)
[4] = target: T1, biotinylated CRH; experiment: ELISA, CRH (CT biotin)
[5] = target: T2, corticotropin-releasing hormone (CRH) peptide (human and mouse, UniProt P01143 145-185 (rat entry), not fully specified); experiment: cell-based or functional assay
T2 peptide: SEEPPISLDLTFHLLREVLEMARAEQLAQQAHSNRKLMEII

[6] = target: T1, biotinylated CRH; experiment: Octet in-tandem competition on captured CRH; row = 1st mAb; competitor (2nd mAb) PR005660
Experimental: (§1) SA sensors (Fortebio, Cat #18-5019) were hydrated in running buffer for 10 mins.

[7] = target: T1, biotinylated CRH; experiment: Octet in-tandem competition on captured CRH; row = 1st mAb; competitor (2nd mAb) PR006669
Experimental: as §1

[8] = target: T1, biotinylated CRH; experiment: Octet in-tandem competition on captured CRH; row = 1st mAb; competitor (2nd mAb) PR301777
Experimental: as §1

[9] = target: T1, biotinylated CRH; experiment: Octet in-tandem competition on captured CRH; row = 1st mAb; competitor (2nd mAb) PR302334
Experimental: as §1

[10] = target: T1, biotinylated CRH; experiment: Octet in-tandem competition on captured CRH; row = 1st mAb; competitor (2nd mAb) PR303394
Experimental: as §1

[11] = target: T1, biotinylated CRH; experiment: Octet in-tandem competition on captured CRH; row = 1st mAb; competitor (2nd mAb) PR302309-8
Experimental: as §1

[12] = target: T1, biotinylated CRH; experiment: Octet in-tandem competition on captured CRH; row = 1st mAb; competitor (2nd mAb) PR302341-34
Experimental: as §1

[13] = target: T1, biotinylated CRH; experiment: CRH ELISA, compared with PR006669
Experimental: Streptavidin (Thermo, Cat: 21125) was diluted in PBS to a concentration of 2 μg/ml. 100 μl of diluted streptavidin was added per well to ELISA microplates, and the plates were incubated overnight at 4° C. […] Subsequently, plates were washed and incubated with HRP-conjugated goat anti-human IgG (H+L) antibody (Jackson, Cat: 109-035-088) at 37° C. for 1 hour. 100 μL of 3,3′,5,5′-tetramethylbenzidine (TMB) substrate (Biopanda, Cat: TMB-S-003) was added, and the plates were incubated at room temperature for 15 minutes. 100 μL of ELISA stopping solution (Solarbio, Cat #: C1058) was added to terminate the reaction, and the optical density at 450 nm (OD450 nm) was determined by an ELISA plate reader (Molecular Devices, Spectra max 384 plus).

B1: PR006143 (antibody, human IgG1, kappa, V domains shown)
VH: EVQLVESGGVLVQPGGSLRLSCAASGFTFSSYWMTWVRQAPGKGLEWVANIKQEGSEKYYVDSVKGRFTISRDNAKNSLFLQMNSLRAEDTAVYYCARTLIFDYWGQGTLVTVSS
VL: DIVMTQSPLSLPVTPGEPASISCRSSQSLLHSTGYHSLEWYLQKPGQSPQLLIYLGSNRASGVPDRFSGSGSGTDFTLKISRVEAEDVGIYYCMQTLQTPITFGQGTRLEIKR
Does B1 bind [1]?
Result: binds

B2: PR006145 (antibody, human IgG1, kappa, V domains shown)
VH: EVQLVESGGVLVQPGGSLRLSCAASGFTFSSYWMTWVRQAPGKGLEWVANIKQEGSEKYYVDSVKGRFTISRDNAKNSLFLQMNSLRAEDTAVYYCARTLIFDYWGQGTLVTVSS
VL: DIVMTQSPLSLPVTPGEPASISCRSSQSLLHSTGYSSLEWYLQKPGQSPQLLIYLGSNRASGVPDRFSGSGSGTDFTLKISRVEAEDVGIYYCMQTLQTPITFGQGTRLEIKR
Does B2 bind [1]?
Result: binds

B3: PR301788 (antibody, human IgG1, kappa, V domains shown)
VH: EMKLEESGGGLVQPGGSMKLSCVASGFTFSNYWMNWVRQSPEKGLEWVAEIRLKSNNYATHYAESVKGRFTISRDDSKSSVYLQMNNLRAEDTGIYYCTIGTLVYWGQGTLVTVSA
VL: DIVLTQSPASLAVSLGQRATISCRASQSVSTSTYNYMHWFQQKPGQPPKLLIKFASNLESGVPARFSGSGSGTDFTLNIHPVEEEDTATFYCQHSWEIPYTFGGGTKLEIKR
Does B3 bind [2]?
Result: binds

B4: PR301306 (antibody, human IgG1, kappa, V domains shown)
VH: EVKLEESGGGLVQPGGSMKLSCVASGFTFSNYWMNWVRQSPEKGLEWVAEIRLKSNNYATLYAESVKGRFTISRDDSKSSVYLQMNNLRAEDTGIYYCTRGTLVYWGQGTLVTVSA
VL: DIVLTQSPASLAVSLGQRATISCRASQSVSTSDYNYMHWYQQKPGQPPKLLIKYASNLESGVPARFSGSGSGTDFTLNIHPVEEEDTATYYCQHSWEIPYTFGGGTKLEIKR
For B4, which “EC50 (read off the curve)” value [3] is on record?
The value was roughly 0.1 nM.

What about the “EC50 (read off the curve)” value [4] of the same binder?
Its value is roughly 0.04 nM.

B5: PR302334 (antibody, human IgG1, kappa, V domains shown)
VH: EVKLVESGGGLVKPGGSLKLSCAASGFTFSTYAMSWVRQTPEKRLEWVASIRSGGTTYYPDSVKGRFTISRDNARNILYLQMSSLRSEDTAIYYCTRGIDWGQGTLVTVSA
VL: NIVMTQTPKFLLVSAGDRITITCKASQSVNNDVAWYQQKPGQSPKLLIYYASNRYTGVPDRFTGSGYGTDFTFTISTVQAEDLAVYFCQQDYSSWTFGGGTNLEIKR
B5 was tested. Which “hCRHR1-Luc 0.5 nM CRH IC50” value [5] did it give?
The value was 0.26 nM and 0.644 nM.

And the “% Inhibition” value [6]?
Its value is 92%.

And the “% Inhibition” value [7]?
Its value is 93%.

And the “% Inhibition” value [8]?
The value was 90%.

What about the “% Inhibition” value [9] of the same binder?
The value was 95%.

And the “% Inhibition” value [10]?
The value was 89%.

And the “% Inhibition” value [11]?
Its value is 91%.

And the “% Inhibition” value [12]?
The value was 88%.

B6: PR301806 (antibody, human IgG1, kappa, V domains shown)
VH: QVQLQQPGAELVKPGTSVKMSCKASGYTFTSYWMHWVKQRPGQGLEWIGDIYPGSDSTNYNEKFKSKASLTVDTSSSTAYMQLSSLTSEDSAVYYCARSITTTTFWYFDVWGAGTTVTVSS
VL: DVLMTQTPLSLPVSLGDQASISCRSSQSFVYSNGNTYLQWYLQKPGQSPKLLIYKVSNRFSGVPDRFSGSGSGTDFTLKISRVEAEDLGVYYCFQGSHVPPTFGAGTKLELKR
Does B6 bind [2]?
Result: binds

B7: PR006745 (antibody, human IgG1, kappa, V domains shown)
VH: EVQLVESGGGLVQPGGSLRLSCAASGFTFSDNWMSWVRQAPGKGLEWVANIKQDASENYYVDSVKGRFTISRDNAKNSLYLQMNSLRAEDTAVYYCSRGLALWGWGQGTLVTVSS
VL: DIVMTHSPLSLPVTPGDPASISCRSSQSLLHSTGYNYLDWYLQKPGQSPQLLIYLGSNRASGVPDRFSGSGSGTDFTLKFIRVEAEDVGVYYCMQALQTPYTFGQGTKLEIKR
Does B7 bind [13]?
Result: binds

B8: PR006746 (antibody, human IgG1, kappa, V domains shown)
VH: EVQLVESGGGLVQPGGSLRLSCAASGFTFSDNWMSWVRQAPGKGLEWVANIKQDSSENYYVDSVKGRFTISRDNAKNSLYLQMNSLRAEDTAVYYCSRGLALWGWGQGTLVTVSS
VL: DIVMTHSPLSLPVTPGDPASISCRSSQSLLHSTGYNYLDWYLQKPGQSPQLLIYLGSNRASGVPDRFSGSGSGTDFTLKFIRVEAEDVGVYYCMQALQTPYTFGQGTKLEIKR
Does B8 bind [13]?
Result: binds
